Data as given in US20130295106A1 (ONCOMED PHARMACEUTICALS, published 2013).

Tests used:
[1] = molecular target: T1, FZD8-Fc variant Mut2 (substitution at position 75 in the cleft) (human, UniProt Q9H461 28-157); experiment: phage ELISA on FZD8-Fc Mut2
T1 construct: also called FZD8-Mut2; not shown: human IgG1 Fc
T1 chain: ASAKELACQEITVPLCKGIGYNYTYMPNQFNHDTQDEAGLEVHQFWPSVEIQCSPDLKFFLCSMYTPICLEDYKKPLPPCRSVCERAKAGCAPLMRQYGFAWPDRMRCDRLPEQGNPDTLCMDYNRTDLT

[2] = molecular target: T2, soluble FZD8-Fc containing the Fri domain (amino acids 1-157 of FZD8 linked in-frame to human IgG1 Fc) (human, UniProt Q9H461 28-157); experiment: phage ELISA on FZD8-Fc
T2 construct: also called wild-type FZD8; not shown: human IgG1 Fc
T2 sequence: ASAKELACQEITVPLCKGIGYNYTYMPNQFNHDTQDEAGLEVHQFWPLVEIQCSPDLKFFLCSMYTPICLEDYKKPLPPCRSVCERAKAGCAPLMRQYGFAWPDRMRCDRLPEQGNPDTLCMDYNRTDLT

[3] = molecular target: T3, human FZD5 expressed on transfected HEK293 cells (human, UniProt Q13467 27-585); experiment: FACS titration (MFI) on HEK293 cells transfected with full-length FZD and GFP
T3 construct: See note of m11
Procedure: (§1) HEK293 cells were co-transfected with a plasmid DNA expressing full-length FZD1, 2, 5, 7 or 8 along with another plasmid expressing the reporter gene GFP used as a transfection marker. Fugene 6 (Roche) was used as transfection reagent according to the manufacturer directions. Transfected cells were incubated twenty-four to forty-eight hours at 37° C. and 5% CO₂. The anti-FZD mAbs were then diluted in a final volume of 50 μl starting with a concentration of 20 μg/ml and serially diluted 4-fold for a total of 8 dilutions. […] The cells were washed and bound anti-Fzd antibodies were detected with a secondary anti-human antibody conjugated to a fluorescent chromophore. Labeled cells were then detected and counted by FACS. The FACS data generated were expressed in Mean Fluorescence Intensity (MFI) units. GraphPad Prism software was used to graph and analyze the data. MFIs were plotted as a function of Ab concentration to establish dose-response curves. A non-linear regression was applied to the numbers to fit the curve and calculate EC50s.
(§2) The binding profiles for the mAbs 18R5 and 44R24 were determined and compared. 44R24 bound Fzd5 and Fzd8 with good affinity.

[4] = molecular target: T4, human FZD2 expressed on transfected HEK293 cells (human, UniProt Q14332 24-565); experiment: as above
T4 construct: See note of m11
T4 sequence (Q14332 24-565 limits assumed): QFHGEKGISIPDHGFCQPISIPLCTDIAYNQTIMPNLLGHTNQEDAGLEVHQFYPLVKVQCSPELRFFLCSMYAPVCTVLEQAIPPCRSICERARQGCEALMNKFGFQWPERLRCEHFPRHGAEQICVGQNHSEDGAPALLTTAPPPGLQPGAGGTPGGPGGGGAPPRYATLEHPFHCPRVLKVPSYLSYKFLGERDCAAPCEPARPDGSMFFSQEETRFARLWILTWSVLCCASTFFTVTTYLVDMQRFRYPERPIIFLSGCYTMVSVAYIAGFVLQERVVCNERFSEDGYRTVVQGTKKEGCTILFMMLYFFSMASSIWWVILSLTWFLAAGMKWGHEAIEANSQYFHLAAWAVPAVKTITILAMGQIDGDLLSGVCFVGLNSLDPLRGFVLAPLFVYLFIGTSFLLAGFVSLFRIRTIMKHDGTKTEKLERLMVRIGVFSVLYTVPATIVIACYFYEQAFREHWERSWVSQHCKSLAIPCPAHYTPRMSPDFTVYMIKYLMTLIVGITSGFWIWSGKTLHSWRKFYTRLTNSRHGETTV
Procedure: as §1, §2

[5] = molecular target: T5, human FZD7 expressed on transfected HEK293 cells (human, UniProt O75084 33-574); experiment: as above
T5 construct: See note of m11
Procedure: as §1, §2

[6] = molecular target: T6, human FZD1 expressed on transfected HEK293 cells (human, UniProt Q9UP38 70-647); experiment: as above
T6 sequence (Q9UP38 70-647 limits assumed): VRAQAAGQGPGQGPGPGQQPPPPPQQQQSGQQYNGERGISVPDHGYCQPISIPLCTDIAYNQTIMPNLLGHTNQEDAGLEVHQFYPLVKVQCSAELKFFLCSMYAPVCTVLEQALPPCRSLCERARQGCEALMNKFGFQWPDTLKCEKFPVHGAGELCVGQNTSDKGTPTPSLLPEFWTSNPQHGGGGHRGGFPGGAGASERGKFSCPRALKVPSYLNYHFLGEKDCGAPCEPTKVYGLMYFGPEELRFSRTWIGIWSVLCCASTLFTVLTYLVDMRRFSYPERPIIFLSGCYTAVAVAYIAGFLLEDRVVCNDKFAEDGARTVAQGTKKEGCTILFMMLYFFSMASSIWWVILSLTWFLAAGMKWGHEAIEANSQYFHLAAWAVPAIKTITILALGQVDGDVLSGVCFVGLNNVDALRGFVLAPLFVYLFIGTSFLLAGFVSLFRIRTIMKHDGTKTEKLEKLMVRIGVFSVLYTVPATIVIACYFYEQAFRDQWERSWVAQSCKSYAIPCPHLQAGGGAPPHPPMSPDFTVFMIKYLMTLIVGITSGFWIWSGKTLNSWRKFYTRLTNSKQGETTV
Procedure: as §1, §2

[7] = molecular target: T7, recombinant FZD2 Fc protein (Biacore) (Homo sapiens (Human), UniProt Q14332 24-250, limits assumed); experiment: SPR, Biacore 2000; Fzd Fc immobilized on CM5 chip, IgG 100 to 0.78 nM in solution
T7 construct: also called Fzd Fc; not shown: Fc part, not described
T7 sequence (Q14332 24-250 limits assumed): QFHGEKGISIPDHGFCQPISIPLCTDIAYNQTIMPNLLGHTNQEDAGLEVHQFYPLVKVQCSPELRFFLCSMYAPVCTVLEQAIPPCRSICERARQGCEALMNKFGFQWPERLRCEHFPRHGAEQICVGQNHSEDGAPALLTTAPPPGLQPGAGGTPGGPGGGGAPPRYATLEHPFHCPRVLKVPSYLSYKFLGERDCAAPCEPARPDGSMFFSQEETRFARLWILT
Procedure: (§3) The KDs of 18R8 and 18R5 antibodies were determined using the Biacore 2000 system from Biacore Lifescience (GE Healthcare). Specifically, purified anti-Fzd7 antibodies were serially diluted in 2-fold increments from 100 to 0.78 nM in HBS-P (0.01 M HEPES pH 7.4, 0.15 M NaCl, 0.005% v/v Surfactant P20). Each dilution was tested against recombinant Fzd Fc proteins immobilized onto a CM5 Biacore chip. The association and dissociation rates were measured and KD values determined using the Biaevaluation software program (Table 5, below).

FZD5-Fc = molecular target: T8, FZD5-Fc (Homo sapiens (Human), UniProt Q13467 27-233, limits assumed); experiment: as above
T8 construct: also called recombinant FZD5 Fc protein; not shown: Fc part, not described
T8 sequence: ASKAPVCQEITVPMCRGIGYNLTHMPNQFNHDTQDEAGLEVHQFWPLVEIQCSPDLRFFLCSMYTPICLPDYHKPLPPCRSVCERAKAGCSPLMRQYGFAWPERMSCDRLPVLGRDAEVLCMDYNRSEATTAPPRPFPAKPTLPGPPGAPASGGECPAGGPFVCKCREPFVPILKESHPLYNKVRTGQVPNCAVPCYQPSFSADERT
Procedure: as §3

[8] = molecular target: T9, recombinant FZD1 Fc protein (Biacore) (Homo sapiens (Human), UniProt Q9UP38 70-321, limits assumed); experiment: as above
T9 construct: also called Fzd Fc; not shown: Fc part, not described
T9 sequence (Q9UP38 70-321 limits assumed): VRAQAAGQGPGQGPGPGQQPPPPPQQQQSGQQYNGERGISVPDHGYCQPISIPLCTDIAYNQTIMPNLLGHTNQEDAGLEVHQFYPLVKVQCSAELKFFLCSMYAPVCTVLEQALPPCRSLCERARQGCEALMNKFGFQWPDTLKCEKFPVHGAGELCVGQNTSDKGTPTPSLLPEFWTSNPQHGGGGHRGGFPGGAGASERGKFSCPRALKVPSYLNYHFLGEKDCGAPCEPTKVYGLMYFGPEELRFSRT
Procedure: as §3

[9] = molecular target: T10, recombinant FZD7 Fc protein (Biacore) (Homo sapiens (Human), UniProt O75084 33-255, limits assumed); experiment: as above
T10 construct: also called Fzd Fc; not shown: Fc part, not described
Procedure: as §3

[10] = molecular target: T4, human FZD2 expressed on transfected …; experiment: flow cytometry (MFI), antibody titration on HEK293 cells overexpressing the FZD
Procedure: (§4) To measure antibody binding to FZD by flow cytometry HEK293 cells were co-transfected with FZD expression vectors and the transfection marker GFP. Twenty-four to forty-eight hours post-transfection, cells were collected in suspension and incubated on ice with anti-FZD antibodies (10 μg/ml unless otherwise indicated) or control IgG to detect background antibody binding. The cells were washed and primary antibodies detected with Fc domain-specific secondary antibodies conjugated to a fluorescent chromophore (e.g. phycoerythrin conjugated anti-human IgG). Labeled cells were then analyzed by flow cytometry to identify anti-FZD antibodies that specifically recognize cell surface expression of FZD protein. Monoclonal antibodies 18R5 and 18R8 recognized FZD on transfected cells. As shown in FIG. 1 and FIG. 2, both 18R8 and 18R5 bind to multiple FZD including FZD1, FZD2, FZD5, FZD7, and FZD8. To examine the relative ability of 18R8 and 18R5 to bind to each FZD protein, titration analysis was conducted wherein the amount of antibody in the binding reaction was varied (FIG. 2).

[11] = molecular target: T6, human FZD1 expressed on transfected …; experiment: as above
Procedure: as §4

B1: FZD binding peptide clone #2 (DTLSALIERGLM) (peptide)
peptide: DTLSALIERGLM
notes: Linear 12-mer from the Ph.D. phage display peptide library
- binding result [1]: no binding
- binding result [2]: binds

B2: 44R24 anti-FZD IgG antibody (antibody, V domains shown)
VH: EVQLVESGGGLVQPGGSLRLSCAASGFTFSSYYITWVRQAPGKGLEWVSTISYSSSNTYYADSVKGRFTISRDNSKNTLYLQMNSLRAEDTAVYYCARSIVFDYWGQGTLVTVSS
VL: DIELTQPPSVSVAPGQTARISCSGDALGNRYVYWYQQKPGQAPVLVIPSGIPERFSGSNSGNTATLTISGTQAEDEADYYCGSWDTRPYPKYVFGGGTKLTVLG
notes: also called anti-FZD5/8 44R24
- EC50 [3]: 1.89 nM

Binder: DVWWLGSTWLKR (marked with an arrow) [clone 28]
- binding result [1]: no binding

B3: 18R5 IgG antibody (human IgG2, lambda) (antibody, V domains shown)
VH: EVQLVESGGGLVQPGGSLRLSCAASGFTFSHYTLSWVRQAPGKGLEWVSVISGDGSYTYYADSVKGRFTISSDNSKNTLYLQMNSLRAEDTAVYYCARNFIKYVFANWGQGTLVTVSS
VL: DIELTQPPSVSVAPGQTARISCSGDNIGSFYVHWYQQKPGQAPVLVIYDKSNRPSGIPERFSGSNSGNTATLTISGTQAEDEADYYCQSYANTLSLVFGGGTKLTVLG
notes: also called OMP-18R5; 18R5 IgG2 antibody
- EC50 [3]: 1.1 nM
- EC50 [4]: 0.62 nM
- EC50 [5]: 0.58 nM
- EC50 [6]: 0.41 nM
- Kd [7]: 3.3 nM
- Kd (FZD5-Fc): 1.9 nM
- Kd [8]: 4.6 nM
- Kd [9]: 1.8 nM
- EC50 (read off the curve) [10]: ~0.2 µg/mL
- EC50 (read off the curve) [11]: ~0.2 µg/mL
